In patent US10919943B2, “Mutant proteins enabling agrochemical control of plant gene expression” (The Regents of the University of California, priority 2016, dated 2021):
Changes are numbered by the printed parent chain. In names and notes the source's numbering stands.

T1: PYR1 (Arabidopsis thaliana, UniProt O49686)
T1 construct: expressed in transfected cells; host or cells: S. cerevisiae strain Y190
T1 sequence (O49686 1-191): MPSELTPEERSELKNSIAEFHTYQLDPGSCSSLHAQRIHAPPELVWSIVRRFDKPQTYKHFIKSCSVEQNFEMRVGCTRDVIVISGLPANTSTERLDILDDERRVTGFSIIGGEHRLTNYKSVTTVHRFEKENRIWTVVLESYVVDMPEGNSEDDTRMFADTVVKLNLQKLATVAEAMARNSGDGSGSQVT

B1: I383G: HAB1 mutant (protein, listed as Arabidopsis thaliana)
chain: MEEMTPAVAMTLSLAANTMCESSPVEITQLKNVTDAADLLSDSENQSFCNGGTECTMEDVSELEEVGEQDLLKTLSDTRSGSSNVFDEDDVLSVVEDNSAVISEGLLVVDAGSELSLSNTAMEIDNGRVLATAIIVGESSIEQVPTAEVLIAGVNQDTNTSEVVIRLPDENSNHLVKGRSVYELDCIPLWGTVSIQGNRSEMEDAFAVSPHFLKLPIKMLMGDHEGMSPSLTHLTGHFFGVYDGHGGHKVADYCRDRLHFALAEEIERIKDELCKRNTGEGRQVQWDKVFTSCFLTVDGEIEGKIGRAVVGSSDKVLEAVASETVGSTAVVALVCSSHIVVSNCGDSRAVLFRGKEAMPLSVDHKPDREDEYARIENAGGKVGQWQGARVFGVLAMSRSIGDRYLKPYVIPEPEVTFMPRSREDECLILASDGLWDVMNNQEVCEIARRRILMWHKKNGAPPLAERGKGIDPACQAAADYLSMLALQKGSKDNISIIVIDLKAQRKFKTRT
B2: E323L: HAB1 mutant (protein, UniProt Q9CAJ0 23-511, looked up, variant E323L)
Protein phosphatase 2C 16: SPVEITQLKNVTDAADLLSDSENQSFCNGGTECTMEDVSELEEVGEQDLLKTLSDTRSGSSNVFDEDDVLSVVEDNSAVISEGLLVVDAGSELSLSNTAMEIDNGRVLATAIIVGESSIEQVPTAEVLIAGVNQDTNTSEVVIRLPDENSNHLVKGRSVYELDCIPLWGTVSIQGNRSEMEDAFAVSPHFLKLPIKMLMGDHEGMSPSLTHLTGHFFGVYDGHGGHKVADYCRDRLHFALAEEIERIKDELCKRNTGEGRQVQWDKVFTSCFLTVDGEIEGKIGRAVVGSSDKVLEAVASLTVGSTAVVALVCSSHIVVSNCGDSRAVLFRGKEAMPLSVDHKPDREDEYARIENAGGKVIQWQGARVFGVLAMSRSIGDRYLKPYVIPEPEVTFMPRSREDECLILASDGLWDVMNNQEVCEIARRRILMWHKKNGAPPLAERGKGIDPACQAAADYLSMLALQKGSKDNISIIVIDLKAQRKFKTRT
B3: I383P: HAB1 mutant (protein, UniProt Q9CAJ0 23-511, looked up, variant I383P)
Protein phosphatase 2C 16: B2 Protein phosphatase 2C 16 with L301E, I361P
B4: I383Q: HAB1 mutant (protein, UniProt Q9CAJ0 23-511, looked up, variant I383Q)
Protein phosphatase 2C 16: B2 Protein phosphatase 2C 16 with L301E, I361Q
B5: I383R: HAB1 mutant (protein, UniProt Q9CAJ0 23-511, looked up, variant I383R)
Protein phosphatase 2C 16: B2 Protein phosphatase 2C 16 with L301E, I361R
B6: I383K: HAB1 mutant (protein, UniProt Q9CAJ0 23-511, looked up, variant I383K)
Protein phosphatase 2C 16: B2 Protein phosphatase 2C 16 with L301E, I361K
B7: I383Y: HAB1 mutant (protein, UniProt Q9CAJ0 23-511, looked up, variant I383Y)
Protein phosphatase 2C 16: B2 Protein phosphatase 2C 16 with L301E, I361Y
B8: K381W: HAB1 mutant (protein, UniProt Q9CAJ0 23-511, looked up, variant K381W)
Protein phosphatase 2C 16: B2 Protein phosphatase 2C 16 with L301E, K359W
B9: I383N: HAB1 mutant (protein, UniProt Q9CAJ0 23-511, looked up, variant I383N)
Protein phosphatase 2C 16: B2 Protein phosphatase 2C 16 with L301E, I361N
B10: I383S: HAB1 mutant (protein, UniProt Q9CAJ0 23-511, looked up, variant I383S)
Protein phosphatase 2C 16: B2 Protein phosphatase 2C 16 with L301E, I361S
B11: I383T: HAB1 mutant (protein, UniProt Q9CAJ0 23-511, looked up, variant I383T)
Protein phosphatase 2C 16: B2 Protein phosphatase 2C 16 with L301E, I361T
B12: I383H: HAB1 mutant (protein, UniProt Q9CAJ0 23-511, looked up, variant I383H)
Protein phosphatase 2C 16: B2 Protein phosphatase 2C 16 with L301E, I361H
B13: I383E: HAB1 mutant (protein, UniProt Q9CAJ0 23-511, looked up, variant I383E)
Protein phosphatase 2C 16: B2 Protein phosphatase 2C 16 with L301E, I361E
B14: I383D: HAB1 mutant (protein, UniProt Q9CAJ0 23-511, looked up, variant I383D)
Protein phosphatase 2C 16: B2 Protein phosphatase 2C 16 with L301E, I361D
B15: W385L: HAB1 mutant (protein, UniProt Q9CAJ0 23-511, looked up, variant W385L)
Protein phosphatase 2C 16: B2 Protein phosphatase 2C 16 with L301E, W363L
B16: I383W: HAB1 mutant (protein, UniProt Q9CAJ0 23-511, looked up, variant I383W)
Protein phosphatase 2C 16: B2 Protein phosphatase 2C 16 with L301E, I361W
B17: W385A: HAB1 mutant (protein, UniProt Q9CAJ0 23-511, looked up, variant W385A)
Protein phosphatase 2C 16: B2 Protein phosphatase 2C 16 with L301E, W363A
B18: S85D: PYR1 mutant (protein, UniProt O49686 1-191, looked up, variant S85D)
Abscisic acid receptor PYR1: T1 sequence (O49686 1-191) with S85D
B19: S85G: PYR1 mutant (protein, UniProt O49686 1-191, looked up, variant S85G)
Abscisic acid receptor PYR1: T1 sequence (O49686 1-191) with S85G
B20: S85K: PYR1 mutant (protein, UniProt O49686 1-191, looked up, variant S85K)
Abscisic acid receptor PYR1: T1 sequence (O49686 1-191) with S85K
B21: S85E: PYR1 mutant (protein, UniProt O49686 1-191, looked up, variant S85E)
Abscisic acid receptor PYR1: T1 sequence (O49686 1-191) with S85E
B22: S85H: PYR1 mutant (protein, UniProt O49686 1-191, looked up, variant S85H)
Abscisic acid receptor PYR1: T1 sequence (O49686 1-191) with S85H
B23: S85F: PYR1 mutant (protein, UniProt O49686 1-191, looked up, variant S85F)
Abscisic acid receptor PYR1: T1 sequence (O49686 1-191) with S85F
B24: S85I: PYR1 mutant (protein, UniProt O49686 1-191, looked up, variant S85I)
Abscisic acid receptor PYR1: T1 sequence (O49686 1-191) with S85I

Legend:
PYR1 = molecular target: T1, PYR1; assay: Yeast two hybrid of pACT-HAB1 site saturation mutants with pBD-PYR1 on 10 μM ABA, β-galactosidase staining; format: cell-based; set-up: key: x: Mutations in HAB1 that disrupt HAB1 interaction with PYR1; conditions: S. cerevisiae Y190, 10 μM ABA; dead = lack of detectable staining in comparison to wild type control
Text: To systematically define mutations in HAB1 that disrupt its binding to PYR1, we used site saturation mutagenesis to create a collection all possible single amino acid substitutions in 20 residues lining the PYR1 binding interface, and then assayed the ability of each mutant to bind PYR1 using the yeast two hybrid assay described above. We targeted the following residues for mutagenesis: R199, 5200, E201, E203, H245, G246, G247, S322, E323, T324, K381, I383, Q384, W385, Q386, R389, F391, G392, V393, and Y404. To create the collection of mutations, mutagenic “NNK” site directed mutagenesis primers were synthesized for each of the 20 positions and the primers used in QuickChange site-directed mutagenesis reactions using a previously described pACT-HAB1 template (Park et al., 2009). We note that this clone uses a HAB1 cDNA lacking its three N-terminal amino acids. The reaction products were digested with DpnI, and transformed into competent Escherichia coli DH5α cells and plasmid DNA for 96 colonies per site was isolated using Bioneer AccuPrep® Plasmid Mini Extraction Kit (Alameda, Calif.) and sequenced to identify mutants. This process identified most of the 19 desired mutations per target site; the remaining mutations were constructed directly using specific mutagenic primers. To interrogate the effects of the mutations on PYR1-HAB1 interactions, the mutant clones were individually transformed into S. cerevisiae strain Y190 containing pBD-PYR1 (Park et al., 2009). Yeast transformants were selected for the presence of plasmids on selective SD (-Leu,-Trp) plates and then spotted onto SD (-Leu,-Trp) agar plates supplemented with 10 μM ABA. After incubating the test plates at 30° C. for two days, the colonies were lysed with chloroform and stained to reveal […] expression levels. “Dead” mutants were defined by lack of detectable staining in comparison to a wild type pBD-PYR1/pACT-HAB1 control. This screening effort defined 163 mutations that disrupt the ABA-induced PYR1/HAB1 interaction (Table 2).

HAB1 = assay: Yeast two hybrid of pBD-PYR1 site saturation mutants with pACT-HAB1 on 10 μM ABA, β-galactosidase staining; format: cell-based, Arabidopsis; set-up: key: x: Mutations in PYR1 that disrupt ABA-induced binding to PYR1 to HAB1; conditions: S. cerevisiae Y190, 10 μM ABA; dead = lack of visible staining in comparison to wild type control
Method in brief: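 Binding was read by β-galactosidase staining of chloroform-lysed colonies after 2 days at 30° C on SD (-Leu, -Trp) plates containing 10 μM (+)-ABA. Yeast strain Y190 carried the BD-PYR1 single-substitution mutants plus the AD-HAB1 fusion. Absence of staining versus the wild-type control defined "dead" mutants.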

| Molecule | Mutations in HAB1 that disrupt HAB1 interaction with PYR1 (PYR1) | Mutations in PYR1 that disrupt ABA-induced binding to PYR1 to HAB1 (HAB1) |
| --- | --- | --- |
| B1 | x |  |
| B2 | x |  |
| B3 | x |  |
| B4 | x |  |
| B5 | x |  |
| B6 | x |  |
| B7 | x |  |
| B8 | x |  |
| B9 | x |  |
| B10 | x |  |
| B11 | x |  |
| B12 | x |  |
| B13 | x |  |
| B14 | x |  |
| B15 | x |  |
| B16 | x |  |
| B17 | x |  |
| B18 |  | x |
| B19 |  | x |
| B20 |  | x |
| B21 |  | x |
| B22 |  | x |
| B23 |  | x |
| B24 |  | x |
